The assay deals with T1, human ROR2 (human, UniProt Q01974 34-943).
T1 construct: also called K562 expressing human ROR2
Put plainly: IHC on FFPE K562 cells transduced with human ROR2.

T1 sequence (Q01974 34-943 limits assumed): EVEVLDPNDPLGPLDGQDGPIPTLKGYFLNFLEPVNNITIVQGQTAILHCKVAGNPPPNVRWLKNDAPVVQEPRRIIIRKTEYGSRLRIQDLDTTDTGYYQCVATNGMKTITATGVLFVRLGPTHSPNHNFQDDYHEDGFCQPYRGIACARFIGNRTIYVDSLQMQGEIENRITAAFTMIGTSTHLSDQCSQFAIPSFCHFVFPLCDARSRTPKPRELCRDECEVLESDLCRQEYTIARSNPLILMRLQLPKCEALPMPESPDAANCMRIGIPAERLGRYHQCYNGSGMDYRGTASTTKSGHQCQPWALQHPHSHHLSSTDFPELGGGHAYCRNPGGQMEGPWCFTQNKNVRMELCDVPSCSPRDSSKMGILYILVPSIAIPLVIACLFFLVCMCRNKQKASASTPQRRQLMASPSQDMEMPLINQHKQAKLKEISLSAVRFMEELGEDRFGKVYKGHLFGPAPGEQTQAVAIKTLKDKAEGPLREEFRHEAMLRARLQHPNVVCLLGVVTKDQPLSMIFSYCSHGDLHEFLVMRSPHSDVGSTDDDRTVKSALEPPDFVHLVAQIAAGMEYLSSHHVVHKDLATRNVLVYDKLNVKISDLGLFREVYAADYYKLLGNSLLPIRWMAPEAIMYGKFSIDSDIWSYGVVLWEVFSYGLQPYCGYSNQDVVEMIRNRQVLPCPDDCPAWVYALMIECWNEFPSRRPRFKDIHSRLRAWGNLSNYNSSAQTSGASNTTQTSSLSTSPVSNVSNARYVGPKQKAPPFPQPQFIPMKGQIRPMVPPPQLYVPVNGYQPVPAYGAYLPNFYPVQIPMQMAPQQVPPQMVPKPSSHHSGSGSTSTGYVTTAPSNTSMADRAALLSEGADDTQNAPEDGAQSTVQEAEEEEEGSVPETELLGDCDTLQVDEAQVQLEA

B1: anti-ROR1 monoclonal antibody 6D4 (antibody, V domains shown)
VH: SGPELVKPGTSVKMSCKASGYTFTDYYMNWVKQTHGKNLEWIGRVNPSNGNTDYNQKFKGKATLTVDKSLSTAYMQLSSLTSEDSAVYYCGRLAYWGQGSLVTVSA
VL: LTQSPASLAVSPGQRATISCKASQSVDYDGETYMNWYQQKSGQPPKLLIYAASNLESGIPARFSGSGSGTDFTLNIHPVEEEDAATYYCLQTLKNPYTFGGGTKLEIK
notes: Mouse monoclonal antibody from a hybridoma, used as supernatant or purified; also called mAb 6D4; clone 6D4
Take B1: the binding result was “no binding”.
